Test results from US20250027068A1.

biological target: pooled human IgG (human); experiment: cell-based or functional assay

Row | Binder | Enzyme Activity Endpoint Assay, Fab′2 | Enzyme Activity Endpoint Assay, Fc | Enzyme Activity Endpoint Assay, IgG | Enzyme Activity Endpoint Assay, scIgG
1 | VRT-43 (Fc fusion) QITSVWTKGVTPPTPEQFRYYNEDVFHAPYTAHQGWYDITKTFDGKDNLLCGAATAGNMLHWWFDQNKTEIEAYLSKHPEKQKIIFKNQELFDLKAAIDTKDSQTNSALFNYFRDKAFPGLSARQLGVFPDLVLDMFINGYYLNVFKTQSTDVNRPYQDKDKRGGIFDAVFTRGVQTTLLTARHDLKNKTLNDISTIIKQELTEGRALALSHTYANVRISHVINLWGADFNAEGNLEAIYVTDSDSRASIGMKKYFVGVNASGKVAISAKKIEGENIGAQVLGLFTLSSGKDIWQKLSDKTHTCPPCPAPEAAGAPSVFLFPPKPKDTLMISRTPEVTCVVVDVSHEDPEVKFNWYVDGVEVHNAKTKPREEQQNSTYRVVSVLTVLHQDWLNGKEYKCKVSNKALKAPIEKTISKAKGQPREPQVYTLPPSRDELTKNQVSLTCLVKGFYPSDIAVEWESNGQPENNYKTTPPVLDSDGSFFLYSKLTVDKSRWQQGNVFSCSVMHEALHNHYTQKSLSLSPG | 0 ng/µL | 28 ng/µL | 1010 ng/µL | 23 ng/µL
2 | VRT-54 (Fc fusion) VTSVWTKGVTPPTDFIKGEDVFHAPYKAGQGWYDITKTFNGKDDLLCGAATAGNMLHWWFDQNKEYIEAYLKKHPEKQKIMFGDQELLDVRKAINTKGSQKNSELFNYFRDKAFPNLSARRLGVMPDLVLDMFINGYYLNVTKTQTTDVNRTYQEKDKRGGIFDAVFTRGDQSKLLTSRHDFKEKGLKEISDLIKQELTEGKALGLSHTYANVRINHVINLWGADFDSDGNLKAIYVTDSDSNASIGMKKYFVGVNSAGKVAISAKEIKEDNIGAQVLGLFTLSTGQDIWNQTNDKTHTCPPCPAPEAAGAPSVFLFPPKPKDTLMISRTPEVTCVVVDVSHEDPEVKFNWYVDGVEVHNAKTKPREEQQNSTYRVVSVLTVLHQDWLNGKEYKCKVSNKALKAPIEKTISKAKGQPREPQVYTLPPSRDELTKNQVSLTCLVKGFYPSDIAVEWESNGQPENNYKTTPPVLDSDGSFFLYSKLTVDKSRWQQGNVFSCSVMHEALHNHYTQKSLSLSPG | 0 ng/µL | 129 ng/µL | 672 ng/µL | 150 ng/µL
3 | VRT-42 (Fc fusion) QITSVWTKGVTPLTPEQFRYYNEDVIHAPYLANQGWYDITKTFNGKDNLLCGAATAGNMLHWWFDQNKTEIEAYLKKHPEKQKIIFKNQELFDLKAAIDTKDSQTNSQLFNYFRDKAFPGLSARQLGVFPDLVLDMFINGYYLNVFKTQSTDVNRPYQDKDKRGGIFDAVFTRGVQTTLLTARHDLKNKGLNEISTLIKQELTEGKALALSHTYANVRISHVINLWGADFNAEGNLEAIYVTDSDSRASIGMKKYFVGVNAHGKVAISAKKIEGENIGAQVLGLFTLSSGKDIWQKLSDKTHTCPPCPAPEAAGAPSVFLFPPKPKDTLMISRTPEVTCVVVDVSHEDPEVKFNWYVDGVEVHNAKTKPREEQQNSTYRVVSVLTVLHQDWLNGKEYKCKVSNKALKAPIEKTISKAKGQPREPQVYTLPPSRDELTKNQVSLTCLVKGFYPSDIAVEWESNGQPENNYKTTPPVLDSDGSFFLYSKLTVDKSRWQQGNVFSCSVMHEALHNHYTQKSLSLSPG | 0 ng/µL | 28 ng/µL | 985 ng/µL | 20 ng/µL
4 | VRT-47 (Fc fusion) VTSVWTKGVTPPTDFIYGEDVLHAPYKAGQGWYDITKTFNGKDDLLCGAATAGNMLHWWFDQNKEQIENYLKKHPEKQKINFNGEQMFDVKEAIDTKDSQLDSKLFEYFKEKAFPYLSTKHLGVFPDHVIDMFINGYRLSLTNHGPTPVKRGSKDPRGGIFDAVFTRGDQSKLLTNRHDLKNKTLKEISDLIKQELTEGKALGISHTYANVRINHVINLWGADFDAEGNLEAIYVTDSDSNASIGMKKYFVGVNSNGKVAISAKEIEEDNIGAQVLGLFTLSTGQDIWNQTNDKTHTCPPCPAPEAAGAPSVFLFPPKPKDTLMISRTPEVTCVVVDVSHEDPEVKFNWYVDGVEVHNAKTKPREEQQNSTYRVVSVLTVLHQDWLNGKEYKCKVSNKALKAPIEKTISKAKGQPREPQVYTLPPSRDELTKNQVSLTCLVKGFYPSDIAVEWESNGQPENNYKTTPPVLDSDGSFFLYSKLTVDKSRWQQGNVFSCSVMHEALHNHYTQKSLSLSPG | 168 ng/µL | 317 ng/µL | 253 ng/µL | 156 ng/µL
5 | VRT-49 (Fc fusion) VTSVWTKGVTPPTNFTYGEDVLHAPYVANQGWYDITKTFNGKDDLLCGAATAGNMLHWWFDQNKEQIENYLKKHPEKQKINFNGEQMFDVKEAIDTKDSQLDSKLFEYFKEKAFPYLSTKHLGVFPDHVIDMFINGYRLSLTNHGPTPVKRGSKDPRGGIFDAVFTRGDQSKLLTNRHDLKNKTLKEISDLIKQELTEGKALGISHTYANVRINHVINLWGADFDAEGNLEAIYVTDSDSNASIGMKKYFVGVNSNGKVAISAKEIEEDNIGAQVLGLFTLSTGQDIWNQTNDKTHTCPPCPAPEAAGAPSVFLFPPKPKDTLMISRTPEVTCVVVDVSHEDPEVKFNWYVDGVEVHNAKTKPREEQQNSTYRVVSVLTVLHQDWLNGKEYKCKVSNKALKAPIEKTISKAKGQPREPQVYTLPPSRDELTKNQVSLTCLVKGFYPSDIAVEWESNGQPENNYKTTPPVLDSDGSFFLYSKLTVDKSRWQQGNVFSCSVMHEALHNHYTQKSLSLSPG | 135 ng/µL | 291 ng/µL | 157 ng/µL | 131 ng/µL
6 | VRT-44 (Fc fusion) SQTEDSESLQRLRDIEDFQAEKKKQNVVYTKWLDGVDVKDHDFRKIVDGNIAYYATPLLNGRGFYDINKDFNRDNDKCAAAVAANMFHYWLDRNRDNVDRFLRQNPEKHGIIELPDEQLKLSDFLNTYESDDGYRDKSKLFDFISNNFNKPVWTDKLLDNYINGYAYNYKYGRTIEDSTKNTSKINFFKEVFNEKILTNIHSIRNQNEFSVLLSEALYTGKAIGLSYGPAGLRHSLGHIISVWGADLDADGNVVAIYVTDSDDKKLTIGDERVGLKRYKISTDDEGRLRLTAYEETHNTGGQIRGLWTLDTGKQAWADYFDKTEQTGTDQAEQDKTHTCPPCPAPEAAGAPSVFLFPPKPKDTLMISRTPEVTCVVVDVSHEDPEVKFNWYVDGVEVHNAKTKPREEQQNSTYRVVSVLTVLHQDWLNGKEYKCKVSNKALKAPIEKTISKAKGQPREPQVYTLPPSRDELTKNQVSLTCLVKGFYPSDIAVEWESNGQPENNYKTTPPVLDSDGSFFLYSKLTVDKSRWQQGNVFSCSVMHEALHNHYTQKSLSLSPG | 0 ng/µL | 28 ng/µL | 1070 ng/µL | 21 ng/µL
7 | VRT-50 (Fc fusion) VTSVWTKGVTPPTDFIYGEDVLHAPYKAGQGWYDITKTFNGKDNLLCGAATAGNMLHWWFDQNKEQIENYLKKHPEKQKIIFNNQELFDLKAAIDTKDSQLDSKLFEYFKEKAFPYLSTKHLGVFPDHVIDMFINGYRLSLTNHGPTPVKRGSKDKRGGIFDAVFTRGVQSKLLTNRHDFKEKTLKEISDLIKQELTEGKALGISHTYANVRINHVINLWGADFDAEGNLEAIYVTDSDTNASIGMKKYFVGVNSNGKVAISAKEIEEDNIGAQVLGLFTLSTGQDIWNQTNDKTHTCPPCPAPEAAGAPSVFLFPPKPKDTLMISRTPEVTCVVVDVSHEDPEVKFNWYVDGVEVHNAKTKPREEQQNSTYRVVSVLTVLHQDWLNGKEYKCKVSNKALKAPIEKTISKAKGQPREPQVYTLPPSRDELTKNQVSLTCLVKGFYPSDIAVEWESNGQPENNYKTTPPVLDSDGSFFLYSKLTVDKSRWQQGNVFSCSVMHEALHNHYTQKSLSLSPG | 8 ng/µL | 226 ng/µL | 295 ng/µL | 360 ng/µL
8 | VRT-52 (Fc fusion) VTSVWTKGVTPPTDFIYGEDVLHAPYKAGQGWYDITKAFDGGDNLLCGAATAGNMLHWWFDQNKEQIENYLKKHPEKQKIIFNNQELFDLKAAIDTKDSQTNSELFNYFKEKAFPYLSTKHLGVFPDHVIDMFINGYRLSLTNHGPTPVKRGSKDKRGGIFDAVFTRGVQSKLLTNRHDLKNKTLKEISDLIKQELTEGKALGISHTYANVRINHVINLWGADFDAEGNLEAIYVTDSDTNASIGMKKYFVGVNSNGKVAISAKEIEEDNIGAQVLGLFTLSTGQDIWNQTNDKTHTCPPCPAPEAAGAPSVFLFPPKPKDTLMISRTPEVTCVVVDVSHEDPEVKFNWYVDGVEVHNAKTKPREEQQNSTYRVVSVLTVLHQDWLNGKEYKCKVSNKALKAPIEKTISKAKGQPREPQVYTLPPSRDELTKNQVSLTCLVKGFYPSDIAVEWESNGQPENNYKTTPPVLDSDGSFFLYSKLTVDKSRWQQGNVFSCSVMHEALHNHYTQKSLSLSPG | 6 ng/µL | 213 ng/µL | 238 ng/µL | 311 ng/µL
9 | VRT-53 (Fc fusion) VTSVWTKGVTPPTNFTYGEDVLHAPYVANQGWYDITKTFNGKDNLLCGAATAGNMLHWWFDQNKEQIENYLKKHPEKQKIIFNNQELFDLKAAIDTKDSQLDSKLFEYFKEKAFPYLSTKHLGVFPDHVIDMFINGYRLSLTNHGPTPVKRGSKDKRGGIFDAVFTRGVQSKLLTNRHDLKNKTLKEISDLIKQELTEGKALGISHTYANVRINHVINLWGADFDAEGNLEAIYVTDSDTNASIGMKKYFVGVNSNGKVAISAKEIEEDNIGAQVLGLFTLSTGQDIWNQTNDKTHTCPPCPAPEAAGAPSVFLFPPKPKDTLMISRTPEVTCVVVDVSHEDPEVKFNWYVDGVEVHNAKTKPREEQQNSTYRVVSVLTVLHQDWLNGKEYKCKVSNKALKAPIEKTISKAKGQPREPQVYTLPPSRDELTKNQVSLTCLVKGFYPSDIAVEWESNGQPENNYKTTPPVLDSDGSFFLYSKLTVDKSRWQQGNVFSCSVMHEALHNHYTQKSLSLSPG | 0 ng/µL | 209 ng/µL | 326 ng/µL | 339 ng/µL
10 | VRT-48 (Fc fusion) VTSVWTKGVTPPTDFRKIVDGNIAYYHAPYKAGQGWYDITKAFDGGDDLLCGAATAGNMLHWWFDQNKEQIENYLKKHPEKQKINFNGEQMFDVKEAIDTKDSQTNSELFNYFKEKAFPYLSTKHLGVFPDHVIDMFINGYRLSLTNHGPTPVKRGSKDPRGGIFDAVFTRGDQSKLLTNRHDLKNKTLKEISDLIKQELTEGKALGISHTYANVRINHVINLWGADFDAEGNLEAIYVTDSDSNASIGMKKYFVGVNSNGKVAISAKEIEEDNIGAQVLGLFTLSTGQDIWNQTNDKTHTCPPCPAPEAAGAPSVFLFPPKPKDTLMISRTPEVTCVVVDVSHEDPEVKFNWYVDGVEVHNAKTKPREEQQNSTYRVVSVLTVLHQDWLNGKEYKCKVSNKALKAPIEKTISKAKGQPREPQVYTLPPSRDELTKNQVSLTCLVKGFYPSDIAVEWESNGQPENNYKTTPPVLDSDGSFFLYSKLTVDKSRWQQGNVFSCSVMHEALHNHYTQKSLSLSPG | 9 ng/µL | 222 ng/µL | 134 ng/µL | 258 ng/µL
